In PMC6630525:

What was measured:
[1] = molecular target: full-length Arabidopsis thaliana NAP1-Related Protein 1 (AtNRP1-His) (Arabidopsis thaliana) (UniProt Q9CA59); assay: native gel or EMSA; native polyacrylamide gel; increasing amounts of H2A-H2B dimer titrated into a constant amount (5 µM) of AtNRP1/2 proteins
[2] = molecular target: full-length Arabidopsis thaliana NAP1-Related Protein 2 (AtNRP2-His) (Arabidopsis thaliana) (UniProt Q8LC68); assay: as above
[3] = molecular target: full-length Arabidopsis thaliana NAP1-Related Protein 1 (AtNRP1-His) (Arabidopsis thaliana) (UniProt Q9CA59); assay: ITC; H2A-H2B (200-210 µM) in the syringe, AtNRP1/AtNRP2 (20 µM) in the cell; 25 °C; 20 mM PIPES pH 7.4, 300 mM NaCl; sequential binding site model
[4] = molecular target: full-length Arabidopsis thaliana NAP1-Related Protein 2 (AtNRP2-His) (Arabidopsis thaliana) (UniProt Q8LC68); assay: as above

Sequence of full-length Arabidopsis thaliana NAP1-Related Protein 2 (AtNRP2-His) (Arabidopsis thaliana) (Q8LC68 other isoform, or with tags, fused parts or gaps): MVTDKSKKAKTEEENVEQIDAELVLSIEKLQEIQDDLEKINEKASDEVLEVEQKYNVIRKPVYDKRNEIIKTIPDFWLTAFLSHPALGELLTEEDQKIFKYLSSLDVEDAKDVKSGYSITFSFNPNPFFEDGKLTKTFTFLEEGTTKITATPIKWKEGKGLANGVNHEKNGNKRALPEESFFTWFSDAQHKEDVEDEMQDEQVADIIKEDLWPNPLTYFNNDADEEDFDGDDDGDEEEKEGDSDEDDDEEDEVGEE
Sequence of Arabidopsis thaliana histone H2A-H2B dimer (Q9LD28 whole entry): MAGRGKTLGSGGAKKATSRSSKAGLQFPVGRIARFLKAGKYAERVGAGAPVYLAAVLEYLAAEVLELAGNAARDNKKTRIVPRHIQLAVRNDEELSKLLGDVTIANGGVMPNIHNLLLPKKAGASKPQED
Sequence of Arabidopsis thaliana histone H2A-H2B dimer (Q9LQQ4 whole entry): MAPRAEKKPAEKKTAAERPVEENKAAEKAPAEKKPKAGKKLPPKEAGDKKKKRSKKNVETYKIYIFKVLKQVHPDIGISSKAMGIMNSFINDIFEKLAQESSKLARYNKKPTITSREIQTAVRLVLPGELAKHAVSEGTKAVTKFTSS
Sequence of full-length Arabidopsis thaliana NAP1-Related Protein 1 (AtNRP1-His) (Arabidopsis thaliana) (Q9CA59 whole entry): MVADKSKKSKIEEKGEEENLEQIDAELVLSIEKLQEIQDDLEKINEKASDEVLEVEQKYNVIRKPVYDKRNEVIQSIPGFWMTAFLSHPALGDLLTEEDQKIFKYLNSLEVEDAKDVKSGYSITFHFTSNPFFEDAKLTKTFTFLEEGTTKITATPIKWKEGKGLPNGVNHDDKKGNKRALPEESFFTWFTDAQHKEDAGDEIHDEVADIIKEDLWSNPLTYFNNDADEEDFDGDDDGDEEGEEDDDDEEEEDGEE

Arabidopsis thaliana histone H2A-H2B dimer (from UniProt Q9LD28 1-130; Q9LQQ4 1-148) (complex)
stoichiometry N (H2A-H2B dimers per NRP dimer) [1]: 2 | stoichiometry N (H2A-H2B dimers per NRP dimer) [2]: 2 | Kd1 (sequential binding model, first site) [3]: 130 nM | Kd2 (sequential binding model, second site) [3]: 2.4 µM | dH1 (sequential binding model, first site) [3]: 8.51 kcal/mol | dH2 (sequential binding model, second site) [3]: 6 kcal/mol | Kd1 (sequential binding model, first site) [4]: 39.6 nM | Kd2 (sequential binding model, second site) [4]: 1 µM | dH1 (sequential binding model, first site) [4]: 7.28 kcal/mol | dH2 (sequential binding model, second site) [4]: 1.33 kcal/mol
